# Data published in the supplement of paper PMC6757056.
# ± gives the standard deviation of the averaged measurements.
# B1: library; a variant is named by its letters at N, in order (parent)
# chain: GCUGUCACCGGUGCUUGGUACGUUAUAUUCAGCCGGUCUGAUGAGUCUNNNNNNAGACGAAACAGC
# Tests used:
# (6R,S)-folinic acid [1] = variants of: B1; experiment: normalized RNA/DNA level without ligand (relative to sTRSVctl = 100) (log10 (% of sTRSVctl)); HEK293T overexpressing SLC46A1; higher = less ribozyme self-cleavage, higher mRNA level; conditions: without (6R,S)-folinic acid; ligand present: no
# How it was run: (§1)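 Total RNA, extracted with EDTA 72 h after HEK293T cells were transfected with 4 µg per 6-well well of reporter-linked ribozyme switch library plasmids, was reverse-transcribed, amplified, barcoded and sequenced. Ligand, if used, was added 1 h before transfection. RNA level was derived from RNA reads divided by DNA reads and normalized to a spiked-in non-cleaving sequence or to the top sequences. This was multiplied by 100 and log10-transformed, with the top set of 25 sequences and a ≥100 DNA read minimum.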
# (6R,S)-folinic acid [2] = variants of: B1; experiment: normalized RNA/DNA level with ligand (relative to sTRSVctl = 100) (log10 (% of sTRSVctl)); HEK293T overexpressing SLC46A1; ligand concentration (+) RNA-Seq: 6 mM; higher = less ribozyme self-cleavage, higher mRNA level; conditions: with (6R,S)-folinic acid; ligand present: yes
# How it was run: as §1
Variant,"normalized RNA/DNA level without ligand (log10) ((6R,S)-folinic acid [1])","normalized RNA/DNA level with ligand (log10) ((6R,S)-folinic acid [2])"
AUCCUU,2.004 ± 0.01,2.02 ± 0.032
AUCCUG,1.992 ± 0.0066,2.02 ± 0.042
CUCGCC,2.1 ± 0.027,2.07 ± 0.054
CUCGCG,2.038 ± 0.016,2.03 ± 0.038
UUCCCU,2.058 ± 0.011,2.06 ± 0.048
UUCCCG,1.972 ± 0.0089,2 ± 0.038
UUCCCC,2.058 ± 0.019,1.99 ± 0.022
UUCCCA,2.034 ± 0.0022,2.03 ± 0.04
UUCGGU,1.962 ± 0.013,2 ± 0.021
UUCGGG,1.86 ± 0.024,2.01 ± 0.052
UUCGGA,1.961 ± 0.0071,2.024 ± 0.0051
UUCCUU,2.02 ± 0.017,2.034 ± 0.018
UUCCUC,2.096 ± 0.011,2.062 ± 0.02
UUCCUA,2.022 ± 0.0051,2.033 ± 0.011
UUAUAU,1.9416 ± 0.0019,2 ± 0.057
UUAUAA,1.925 ± 0.0034,1.981 ± 0.017
CUAGGG,1.882 ± 0.017,2.02 ± 0.028
CUAGGA,2.016 ± 0.0053,2.01 ± 0.047
GUCCCA,2.039 ± 0.0032,2.016 ± 0.0029
GUCCCU,2.05 ± 0.021,2.03 ± 0.03
GUCCCG,2.004 ± 0.019,1.98 ± 0.024
UUAGCU,2.007 ± 0.0056,2.02 ± 0.047
UUAGCC,2.013 ± 0.0037,1.99 ± 0.026
UUAGCG,1.896 ± 0.0052,1.98 ± 0.032
CUCGAU,1.99 ± 0.0044,1.991 ± 0.0061
CUCGAA,1.994 ± 0.009,1.988 ± 0.018
CUCGAC,2.017 ± 0.0083,2.01 ± 0.02
CUAUUC,2.06 ± 0.024,2.008 ± 0.0052
CUAUUA,2.017 ± 0.013,2.009 ± 0.0054
